Reference: patent US20250171549A1 (Amgen, published 2025)

Legend:
human CCR8 [1] = target: T1, human CCR8 (human, UniProt P51685 1-355); assay: cell-based or functional assay
[2] = target: T2, cynomolgus monkey CCR8 (comprising threonine at position four) (cynomolgus monkey, UniProt O97665 1-356 (rhesus entry)); assay: flow cytometry titration on CHO cells
T2 construct: also called Cyno CCR8; cynomolgus CCR8
Description: (§1) Bound anti-CCR8 antibody molecules were detected with Alexa Fluor 647 conjugated Goat anti-Human IgG (H+L). Cells were subsequently stained with Zombie Violet viability dye, fixed with 4% PFA on ice, and detected by fluorescence cytometry. Equilibrium dissociation constant (Kd) values were calculated by non-linear regression with the one site specific binding evaluation tool of the GraphPad Prism software. “N.D.” means not detectable.

[3] = target: T3, cynomolgus monkey CCR8 (T4R; comprising arginine at position four) (cynomolgus monkey, UniProt O97665 1-356 (rhesus entry)); assay: flow cytometry titration on CHO cells; N.D. means not detectable
T3 construct: Expressed on CHO cells; also called cy CCR8 (T4R); Cynomolgus monkey Mauritian origin T4R CCR8
T3 chain: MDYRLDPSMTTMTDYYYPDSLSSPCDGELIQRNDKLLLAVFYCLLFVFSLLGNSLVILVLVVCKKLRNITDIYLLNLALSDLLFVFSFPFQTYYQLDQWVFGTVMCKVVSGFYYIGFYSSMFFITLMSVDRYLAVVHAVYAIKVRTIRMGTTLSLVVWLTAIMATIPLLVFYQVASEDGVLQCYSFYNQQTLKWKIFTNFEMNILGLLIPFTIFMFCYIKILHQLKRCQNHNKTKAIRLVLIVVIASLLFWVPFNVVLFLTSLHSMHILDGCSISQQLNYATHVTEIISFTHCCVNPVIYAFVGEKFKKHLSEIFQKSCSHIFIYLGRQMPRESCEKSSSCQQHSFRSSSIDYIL
Description: as §1

human CCR8 [4] = target: T1, human CCR8; assay: cell-based or functional assay; remark: listed apart in the source
[5] = target: T3, cynomolgus monkey CCR8 (T4R; comprising …); assay: flow cytometry titration on CHO cells
Description: as §1

T1 sequence (P51685 whole entry): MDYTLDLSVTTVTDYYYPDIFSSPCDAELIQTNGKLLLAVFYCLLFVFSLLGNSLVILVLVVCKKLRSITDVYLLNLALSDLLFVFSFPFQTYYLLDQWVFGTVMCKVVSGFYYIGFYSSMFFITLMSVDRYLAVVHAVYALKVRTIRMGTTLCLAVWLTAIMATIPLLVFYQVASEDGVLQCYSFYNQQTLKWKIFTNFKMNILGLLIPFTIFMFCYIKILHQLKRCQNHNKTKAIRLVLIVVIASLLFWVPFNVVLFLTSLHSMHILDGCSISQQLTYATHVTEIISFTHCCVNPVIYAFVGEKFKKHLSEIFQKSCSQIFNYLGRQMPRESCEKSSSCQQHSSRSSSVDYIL

| Kd [2] [pM] | binding result [3] | Percent Inhibition (IC50 nM) of CCL1-dependent chemotaxis of HUT78 cells (human CCR8 [4]) [nM] | Kd [5] [pM] | Binder | ADCC, Percent Non-Viable cells (EC50 pM), Donor 1 (human CCR8 [1]) [pM] | ADCC, Percent Non-Viable cells (EC50 pM), Donor 2 (human CCR8 [1]) [pM] | ADCC, Percent Non-Viable cells (EC50 pM), Donor 3 (human CCR8 [1]) [pM] |
| --- | --- | --- | --- | --- | --- | --- | --- |
| 172 | no binding (tested: 0.005-100 nM) | – | – | Antibody 1.1 IgG1 (LC: H45Q_S51P) (antibody, V domains shown, Afucosylated IgG1) VH: EVQLVESGGGLVKPGGSLRLSCAASGFTFSNARMGWVRQAPGKGLEWVGRIKSKTEGGTRDYAAPVKGRFTISRDDSKNTLYLQMNSLKTEDTAVYYCTSYSGVWGQGTMVTVSS VL: not shown | < 0.256 | 8.13 | 2.2 |
| 399 | – | 0.076 | 989 | Antibody 2.2 IgG1 (LC: F2I_P51S_H53Q_L103V_N148K, HC: K87N_S94N_V98A)(LC: Y25A, HC: A71L_D72K) (antibody, V domains shown, Afucosylated IgG1) VH: QVQLVESGGGVVQPGRSLRLSCAASGFTFSNYGMHWVRQAPGKGLEWVAVISYDGSNKFYLKSVKGRFTISRDNSKNTLYLQMNSLRAEDTAVYYCARAGGIGRFDYWGQGTLVTVSS VL: DIVMTQTPLSLSVTPGQPASISCKASQSLLHSDGKTYLFWYLQKPGQSPQLLIYEVSNRFSGVPDRFSGSGSGTDFTLKISRVEAEDVGVYYCMQTLKLPLTFGGGTKVEIKR | < 0.256 | 6.04 | 1.8 |
